Reference: article doi:10.1101/2020.02.11.944462

What was measured:
[1] = target: 2019-nCoV S prefusion-stabilized ectodomain (residues 1-1208, two proline substitutions, GSAS at the (2019-nCoV | bacteriophage T4)); assay: cryo-EM structure
[2] = target: 2019-nCoV S prefusion-stabilized ectodomain (residues 1-1208, two proline substitutions, GSAS at the (2019-nCoV | bacteriophage T4)); assay: SPR; […], Biacore X100; 10 mM HEPES pH 8.0, 150 mM NaCl, 0.05% Tween 20; […]; 1:1 binding model

human angiotensin-converting enzyme 2 (ACE2), residues 1-615, untagged, sequence (Q9BYF1 18-615): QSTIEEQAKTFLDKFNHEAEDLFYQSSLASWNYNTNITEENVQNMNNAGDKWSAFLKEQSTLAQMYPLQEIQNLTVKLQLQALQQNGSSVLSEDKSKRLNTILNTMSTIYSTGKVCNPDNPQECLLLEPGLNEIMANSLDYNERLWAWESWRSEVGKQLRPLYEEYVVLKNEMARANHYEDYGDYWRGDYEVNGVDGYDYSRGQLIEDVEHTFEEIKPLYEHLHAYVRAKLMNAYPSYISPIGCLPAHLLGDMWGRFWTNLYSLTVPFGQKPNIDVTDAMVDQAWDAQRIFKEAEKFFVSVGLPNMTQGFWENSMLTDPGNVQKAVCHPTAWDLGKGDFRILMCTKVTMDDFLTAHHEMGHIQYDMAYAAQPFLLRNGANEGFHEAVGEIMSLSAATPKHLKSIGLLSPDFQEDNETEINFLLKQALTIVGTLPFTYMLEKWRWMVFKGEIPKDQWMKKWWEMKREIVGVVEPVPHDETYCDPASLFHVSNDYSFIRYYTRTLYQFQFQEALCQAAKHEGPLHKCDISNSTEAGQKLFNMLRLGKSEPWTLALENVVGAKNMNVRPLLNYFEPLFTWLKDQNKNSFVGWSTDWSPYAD

Row | Substance | stoichiometry N [1] | Kd [2] [nM]
1 | 2019-nCoV S prefusion-stabilized ectodomain (residues 1-1208, two proline substitutions, GSAS at the (domain or fragment) | 3 | –
2 | human angiotensin-converting enzyme 2 (ACE2), residues 1-615, untagged (from UniProt Q9BYF1 18-615) (receptor) | – | 15
